This is an account of results in patent USRE38313.

In assay [1] the target is human MHC Class II molecules expressed on cells (human). Briefly: flow cytometry on Daudi cells, GAH-FITC detection, no preincubation. In general terms: Flow cytometry measures light scatter and fluorescence of single cells or particles in a stream.
Assay [2] shares this target. Kind of assay: cell-based or functional assay.
The target is the same in assay [3]. Kind of assay: flow cytometry on Daudi cells preincubated with the competitor soluble CHO/LAG-3D1D2, GAH-FITC detection.
Assay [4] shares this target. Kind of assay: competition by flow cytometry on Daudi cells; soluble CHO/LAG-3D1D2 first, then dimeric LAG-3D1D4Ig.
For assay [5] the target is unchanged. Briefly: competition by flow cytometry on Daudi cells; soluble CHO/LAG-3D1D2 first, then monomeric LAG-3D1D2Ig.

On to “LAG-3 D1D2 Ig (from UniProt P01857 99-330) (Fc fusion)”, for which the Mean Fluorescence in assay [1] amounted to 62.5.
“LAG-3 D1-D4 Ig (from UniProt P01857 99-330) (Fc fusion)” returned an inhibition of the proliferation of clone T154 preincubated with cross-linked LAG-3Ig in assay [2] of more than 50%. Further, the Mean Fluorescence turned out to be 20.8 in assay [1] and 8.5 in assay [3].
The substance “soluble LAG-3 D1D2 fragment produced by CHO cells (receptor)” yielded a percent inhibition of the binding of dimeric LAG-3D1D4Ig in assay [4] of 58%. Moreover, the percent inhibition of the binding of monomeric LAG-3D1D2Ig in assay [5] came out at 27%.
